Test results published in PMC10829871.

Molecular target: Recombinant human LILRB4 protein (ECD, hFc Tag) (human) (UniProt Q8NHJ6)
Experiment: BLI

UniProt Q8NHJ6, sequence (Q8NHJ6 22-259): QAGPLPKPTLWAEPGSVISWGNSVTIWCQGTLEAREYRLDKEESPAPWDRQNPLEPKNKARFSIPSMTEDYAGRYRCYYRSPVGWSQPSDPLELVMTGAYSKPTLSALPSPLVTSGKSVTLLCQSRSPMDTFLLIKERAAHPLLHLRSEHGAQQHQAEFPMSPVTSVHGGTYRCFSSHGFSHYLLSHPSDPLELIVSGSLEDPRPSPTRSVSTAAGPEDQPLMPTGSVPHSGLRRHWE

Work on “Recombinant human Galectin 8/LGALS8 protein (from UniProt O00214 1-317) (natural protein)” yielded a Kd of 1020 nM and a koff of 0.131 s⁻¹.
